The results in this text go back to patent publication US20250270280A1.

The target in experiment [1] is PA4C7K/H2-D^b (mouse; human).
For experiment [2], the target named is PA4C7A/H2-D^b (mouse; human).
Experiment [3] deals with PA4C7L/H2-D^b (mouse; human).
Experiment [4] addresses PA4C/H2-D^b (PA peptide with cysteine at position 4 presented by H2-D^b) (mouse; human).
The target of experiment [5] is PA/H2-D^b (influenza Polymerase Acidic peptide … presented by H2-D^b) (mouse; human).
The target in experiment [6] is PA4C7K/H2-D^b (mouse; human). This is another data set of the same source.
For experiment [7], the target named is PA4C7A/H2-D^b (mouse; human). This is another data set of the same source.
In experiment [8] the target is PA4C7L/H2-D^b (mouse; human). The source holds these as a separate data set.
The target in experiment [9] is PA4C/H2-D^b (PA peptide with cysteine at position 4 presented by H2-D^b) (mouse; human). The source holds these as a separate data set.
For experiment [10], the target named is PA/H2-D^b (influenza Polymerase Acidic peptide … presented by H2-D^b) (mouse; human). The source holds these as a separate data set.

In the case of 6218 TCR expressed on cells, the IL-2 in supernatant (ELISA), 5KC T cells with CD8αβ and the TCR + DC2.4 cells + graded peptide: EC50 [left graph] in [1], in experiment [2] and in [3] was greater than 50000 nM each time. The tetramer MFI / TCRβ MFI, normalized to 6218 TCR-PA/H2-D^b is 1.03 in [4]; 1 in experiment [5]; 0.33 in experiment [6]; 0.16 in [7]; 0.03 in [8]. For the same substance, the IL-2 in supernatant (ELISA), 5KC T cells with CD8αβ and the TCR + DC2.4 cells + graded peptide: EC50 [panel PA4C] in experiment [9] stood at 49 nM. The IL-2 in supernatant (ELISA), 5KC T cells with CD8αβ and the TCR + DC2.4 cells + graded peptide: EC50 [panel PA] in experiment [10] was determined as 50 nM.
